Test results published in patent US20240117334A1, “FACTOR B PROTEASES” (Vertex Pharmaceuticals Incorporated, priority 2021, published 2024).
Positions count from the first letter of the chain named. Numbers in names are those of the source.

Target: Human Factor B (human) (UniProt P00751)
Test: cell-based or functional assay

Chain of Human Factor B (human) (P00751 26-764 limits assumed): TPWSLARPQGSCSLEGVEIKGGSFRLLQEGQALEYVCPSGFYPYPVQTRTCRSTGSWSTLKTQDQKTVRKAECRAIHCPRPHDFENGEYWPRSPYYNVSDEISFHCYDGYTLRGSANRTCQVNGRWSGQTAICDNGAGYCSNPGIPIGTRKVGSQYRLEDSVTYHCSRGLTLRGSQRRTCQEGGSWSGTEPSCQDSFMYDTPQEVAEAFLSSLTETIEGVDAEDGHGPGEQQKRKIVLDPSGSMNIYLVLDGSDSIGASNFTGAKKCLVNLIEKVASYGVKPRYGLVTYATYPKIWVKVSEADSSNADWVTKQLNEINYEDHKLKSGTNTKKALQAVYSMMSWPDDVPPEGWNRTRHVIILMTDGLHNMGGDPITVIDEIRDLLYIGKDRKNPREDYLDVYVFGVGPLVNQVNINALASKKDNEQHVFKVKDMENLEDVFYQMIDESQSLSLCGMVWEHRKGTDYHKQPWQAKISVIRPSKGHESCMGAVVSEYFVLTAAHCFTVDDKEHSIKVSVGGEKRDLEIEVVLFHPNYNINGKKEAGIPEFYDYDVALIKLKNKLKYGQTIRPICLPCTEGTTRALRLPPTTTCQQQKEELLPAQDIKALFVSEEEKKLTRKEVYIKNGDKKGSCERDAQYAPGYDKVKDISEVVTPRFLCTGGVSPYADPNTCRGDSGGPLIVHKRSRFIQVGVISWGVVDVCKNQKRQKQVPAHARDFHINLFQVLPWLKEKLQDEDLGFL

B1: chymase C22S/A226R/F228A (enzyme)
chain: IIGGTESKPHSRPYMAYLEIVTSNGPSKFCGGFLIRRNFVLTAAHCAGRSITVTLGAHNITEEEDTWQKLEVIKQFRHPKYNTSTLHHDIMLLKLKEKASLTLAVGTLPFPSQFNFVPPGRMCRVAGWGRTGVLKPGSDTLQEVKLRLMDPQACSHFRDFDHNLQLCVGNPRKTKSAFKGDSGGPLLCAGVAQGIVSYGRSDAKPPRVATRISHYRPWINQILQAN
  fB Cleavage EC50: 5070 nM

B2: chymase C22S/P38Q/K40L/F41R/L99H/V138I/F173Y/D175S/A190S/V213A/S218I/A226R (enzyme)
chain: IIGGTESKPHSRPYMAYLEIVTSNGQSLRCGGFLIRRNFVLTAAHCAGRSITVTLGAHNITEEEDTWQKLEVIKQFRHPKYNTSTHHHDIMLLKLKEKASLTLAVGTLPFPSQFNFVPPGRMCRIAGWGRTGVLKPGSDTLQEVKLRLMDPQACSHYRSFDHNLQLCVGNPRKTKSSFKGDSGGPLLCAGVAQGIASYGRIDAKPPRVFTRISHYRPWINQILQAN
  fB Cleavage EC50: 60.3 nM

B3: chymase C22S/K40L/F41R/L99H/F173Y/D175Y/S218I/A226R (enzyme)
chain: B2 chain with Q26P, I125V, S159Y, S177A, A196V
  fB Cleavage EC50: 84 nM
  fB Cleavage, 80% plasma EC50: 5560 nM

B4: chymase C22S/A220S/A226R (enzyme)
chain: B1 chain with A203S, A209F
  fB Cleavage EC50: 5560 nM

B5: chymase C22S/P38Q/K40M/F41R/L99M/F173Y/D175N/V213Q/S218V/A226R/F228A (enzyme)
chain: B1 chain with P26Q, K28M, F29R, L86M, F157Y, D159N, V196Q, S201V
  fB Cleavage EC50: 788 nM

B6: chymase C22S/P38Q/K40A/F41R/L99H/D175N/V213Q/S218I/A226R/F228A (enzyme)
chain: B1 chain with P26Q, K28A, F29R, L86H, D159N, V196Q, S201I
  fB Cleavage EC50: 553 nM

B7: chymase C22S/K40L/F41K/L99N/F173Y/D175N/A226R (enzyme)
chain: B1 chain with K28L, F29K, L86N, F157Y, D159N, A209F
  fB Cleavage EC50: 151 nM

B8: chymase C22S/K40M/F41V/L99N/G151R/F173S/S218E/A226R (enzyme)
chain: B1 chain with K28M, F29V, L86N, G137R, F157S, S201E, A209F
  fB Cleavage EC50: 11800 nM

B9: chymase C22S/V138A/S189T/A226R/F228M (enzyme)
chain: B1 chain with V125A, S176T, A209M
  fB Cleavage EC50: 1770 nM

B10: chymase C22S/P38Q/K40M/F41R/L99N/V138I/D175N/A190S/V213A/S218T/A226R (enzyme)
chain: B2 chain with L28M, H86N, Y157F, S159N, I201T
  fB Cleavage EC50: 449 nM

B11: chymase C22S/P38Q/K40M/F41R/L99F/V138I/F173L/D175N/A190S/V213A/A226R (enzyme)
chain: B2 chain with L28M, H86F, Y157L, S159N, I201S
  fB Cleavage EC50: 870 nM

B12: chymase C22S/P38Q/V213Q/A226R/F228A (enzyme)
chain: B1 chain with P26Q, V196Q
  fB Cleavage EC50: 6210 nM

B13: chymase C22S/K40M/F41R/L99Q/F173Y/D175R/S218V/A226R (enzyme)
chain: B1 chain with K28M, F29R, L86Q, F157Y, D159R, S201V, A209F
  fB Cleavage EC50: 235 nM
  fB Cleavage, 80% plasma EC50: 4070 nM

B14: chymase C22S/V138A/A226R (enzyme)
chain: B1 chain with V125A, A209F
  fB Cleavage EC50: 2940 nM

B15: chymase C22S/K40M/F41I/L99H/G151R/F173S/S218L/A226R (enzyme)
chain: B1 chain with K28M, F29I, L86H, G137R, F157S, S201L, A209F
  fB Cleavage EC50: 8200 nM

B16: chymase C22S/P38Q/K40L/F41R/V138I/D175N/A190S/V213A/S218V/A226R (enzyme)
chain: B2 chain with H86L, Y157F, S159N, I201V
  fB Cleavage EC50: 114 nM

B17: chymase C22S/S189T/A190S/F191S/A220L/A226R (enzyme)
chain: B1 chain with S176T, A177S, F178S, A203L, A209F
  fB Cleavage EC50: 8140 nM

B18: chymase C22S/P38Q/K40A/F41R/L99H/V138I/D175R/A190S/V213A/S218L/A226R (enzyme)
chain: B2 chain with L28A, Y157F, S159R, I201L
  fB Cleavage EC50: 191 nM

B19: chymase C22S/K40L/F41K/F173Y/D175N/S218L/A226R (enzyme)
chain: B1 chain with K28L, F29K, F157Y, D159N, S201L, A209F
  fB Cleavage EC50: 77 nM

B20: chymase C22S/K40M/F41R/L99H/F173Y/D175W/S218L/A226R (enzyme)
chain: B1 chain with K28M, F29R, L86H, F157Y, D159W, S201L, A209F
  fB Cleavage EC50: 181 nM
  fB Cleavage, 80% plasma EC50: 7210 nM

B21: chymase C22S/V138S/S189T/A226R/F228M (enzyme)
chain: B1 chain with V125S, S176T, A209M
  fB Cleavage EC50: 2980 nM

B22: chymase C22S/P38Q/K40M/F41H/L99N/V138I/F173Y/D175S/A190S/V213A/S218T/A226R (enzyme)
chain: B2 chain with L28M, R29H, H86N, I201T
  fB Cleavage EC50: 561 nM

B23: chymase C22S/K40M/F41R/L99N/F173Y/D175S/S218L/A226R (enzyme)
chain: B1 chain with K28M, F29R, L86N, F157Y, D159S, S201L, A209F
  fB Cleavage EC50: 230 nM
  fB Cleavage, 80% plasma EC50: 5140 nM

B24: chymase C22S/V138T/A190S/V213A/A226R (enzyme)
chain: B1 chain with V125T, A177S, V196A, A209F
  fB Cleavage EC50: 6710 nM

B25: chymase C22S/P38Q/K40M/F41H/V138I/F173Y/D175R/A190S/V213A/S218V/A226R (enzyme)
chain: B2 chain with L28M, R29H, H86L, S159R, I201V
  fB Cleavage EC50: 47.6 nM

B26: chymase C22S/K40L/F41K/L99N/D175N/S218L/A226R (enzyme)
chain: B1 chain with K28L, F29K, L86N, D159N, S201L, A209F
  fB Cleavage EC50: 295 nM

B27: chymase C22S/K40M/F41K/F173Y/D175R/S218E/A226R (enzyme)
chain: B1 chain with K28M, F29K, F157Y, D159R, S201E, A209F
  fB Cleavage EC50: 203 nM
  fB Cleavage, 80% plasma EC50: 4130 nM

B28: chymase C22S/P38Q/K40A/F41R/L99H/F173Y/D175Y/V213Q/S218V/A226R/F228A (enzyme)
chain: B2 chain with L28A, I125V, S159Y, S177A, A196Q, I201V, F209A
  fB Cleavage EC50: 769 nM

B29: chymase C22S/P38Q/K40M/F41K/L99Y/V138I/F173M/D175Y/A190S/V213A/S218V/A226R (enzyme)
chain: B2 chain with L28M, R29K, H86Y, Y157M, S159Y, I201V
  fB Cleavage EC50: 448 nM
